Source: the supplement of paper PMC10567573

B1: TAF7L (parent)
chain: PDVENEVKRLLRSDAEAVSTRWEV
B2: CCND2 (parent)
chain: YFKCVQKDIQPYMRRMVATWMLEV

Variants of: B1
Assay: protein stability index of a GFP-peptide fusion (GPS, HEK-293T) (PSI 1-6); higher = more stable
Conditions: c terminus: a fixed tail appended
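Note: lentivirally expressed fusions sorted by FACS into six bins by GFP to DsRed ratio, PSI derived from sequencing read proportions per bin multiplied by bin number.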

Protein stability index: each site, then its substitutions
T20: D 2.76, N 3.28, Y 2.43, R 3.29, H 2.22, K 3.85, E 3.99, I 2.12, S 3.32, F 2.74, Q 3.34, M 2.26, V 2.39, L 2.29, P 2.15
W22: F 3.83, C 3.63, H 4.79, L 4.8, A 5.26, R 4.92, N 5.45, Q 5.11, E 5.52, T 5.07, I 4.49, G 5.31, P 4.92, D 5.66, V 4.21
E23: H 3.56, Y 2.56, R 2.75, K 3.59, G 3.86, A 3.52, C 2.83, M 2.4, T 2.96, S 2.53, Q 2.68, L 2.29, I 2.59, P 3.2
V24: P 4.63, M 4.29, T 4.31, D 4.24, C 4.15, A 4.61, R 4.36, Y 3.51, G 4.61, N 5.33, E 4.13
R21: G 4.36, H 3.58, V 3.2, T 3.06, E 5.41, A 3.19, C 2.61, N 4.93, M 3.61, Y 2.51, F 2.53, S 2.95, Q 4.18, P 3.87, L 2.86, K 3.76, I 2.96, D 5.01

Variants of: B2
Assay: as above
Conditions: c terminus: a fixed tail appended

Protein stability index, by site and new letter:
I9: T 3.39, K 1.52, S 3.49, M 3.79, Q 2.61, D 2.71, H 2.78, C 2.51, G 3.25, V 1.06, P 3.18, Y 3.57, L 3.16, E 3.71, R 1.77, F 2.47
K7: V 3.05, T 3.22, Q 2.1, L 2.56, M 2.53, W 2.12, D 1.91, P 2.48, Y 2.54, E 4.8, F 1.98, N 2.66, R 2.69, I 3.33, S 3.21, H 4.29, G 2.97
R14: C 2.77, W 1.74, V 2.55, L 4.22, A 3.47, S 3.39, E 2.24, N 2.06, Q 1.73, P 3.71, I 2.63, D 2.16, T 4.32, G 2.28, Y 3.2, K 1.44
M16: F 3.28, K 2.67, S 2.58, H 2.35, N 1.51, I 3.33, A 3.12, D 2.09, G 3.04, P 3.25, R 2.65, Q 2.91, L 3.06, E 2.45
V5: I 2.92, L 2.71, M 2.48, P 3.14, E 2.58, A 2.25, Y 4, G 1.47, K 2.25, R 4.02, F 2.7, S 1.43, D 2.41, T 3.62, C 2.36, H 2.23, Q 2.37, W 2.9, N 2.54
Y1: N 2.23, T 2.37, E 1.88, H 3.71, I 2.47, K 3.54, R 1.87, Q 3.55, W 2.82, L 2.14, V 3.34, S 2.85, F 2.3, C 1.94, P 1.71, D 2.58, A 3.09, M 2.11
Y12: A 3.33, H 2.54, T 2.66, L 3.19, C 2.89, I 2.54, K 3.07, M 5.01, N 2.38, V 3.11, D 3.35, Q 3.19, S 2.83, W 2.43, R 4.86, P 1.89
D8: P 3.13, Y 3.53, K 2.94, C 2.87, W 2.03, H 2.21, L 2.05, G 3.98, N 2.16, I 2.58, S 3.28, T 2.37, E 2.37
R15: F 4.08, N 3.95, W 3.97, Y 2.81, I 2.75, E 3.42, A 1.77, P 3.69, D 3.42, G 2.35, C 3.12, L 2.33, S 2.55, K 2.36, V 3.01, H 2.75
C4: E 1.28, Q 1.44, I 2.84, H 2.37, Y 3.12, A 2.47, N 3.42, R 2.25, V 3.69, S 3.14, T 1.74, W 3.23, F 4.64, K 2.45, P 2.44, M 2.81, G 2.21
K3: T 3.31, S 3.75, D 3.48, H 3.13, C 2.89, Y 3.04, I 2.78, V 3.12, Q 2.12, L 2.71, A 2.64, W 2.44, M 2.96, N 2.9, G 1.86, E 3.31, P 2.33
P11: C 2.36, S 2.5, Q 3.25, M 3.69, I 2.9, Y 2.74, W 3.21, D 2.22, F 3.77, K 2.82, E 2.85, N 2.54, V 2.82, T 2.34, H 4.06
F2: Y 2.68, A 2.97, M 1.89, C 2.61, N 2.66, V 2.15, D 2.15, I 2.9, R 2.33, G 3.84, L 2.85, W 2.75, S 3.5, T 2.61, Q 3.63, E 4.07, K 2.95
M13: I 3.3, Y 3.66, D 2.8, G 2.58, Q 2.65, V 1.66, H 2.92, A 3.23, E 2.88, T 2.96, K 3.64, F 3.07, C 2.43, R 2.42
Q6: A 1.97, I 1.91, F 2.07, D 2.65, L 2.53, Y 2.64, P 2.49, G 2.47, C 3.44, E 3.62, S 2.37, T 2.38, N 1.9, W 1.64, V 1.79, K 3.15, R 2.65
Q10: E 2.32, D 2.77, G 2.42, C 3.12, L 2.64, Y 3.78, R 2.02, S 3.22, P 3.81, I 3.17, F 1.99, A 3.8, W 3.11, H 2.84, V 2.5, K 3.06, N 3.3, T 2.71, M 2.06
